Reference: publication PMC2848554, “Topology and Organization of the Salmonella typhimurium Type III Secretion Needle Complex Components” (PLoS Pathogens, 2010)

B1: PrgK (natural protein)
chain: CKDKDLLKGLDQEQANEVIAVLQMHNIEANKIDSGKLGYSITVAEPDFTAAVYWIKTYQLPPRPRVEIAQMFPADSLVSSPRAEKARLYSAIEQRLEQSLQTMEGVLSARVHISYDIDAGENGRPPKPVHLSALAVYERGSPLAHQISDIKRFLKNSFADVDYDNISVVLSERSDAQLQAPGTPVKRNSFATSWIVLIILLSVMSAGFGVWYYKNHYARNKKGITADDKAKSSNE
modifications: lipoprotein; lipidated N-terminal cysteine (Cys-18)
notes: PrgK, lipoprotein of the SPI-1 needle complex base, S. typhimurium; predicted transmembrane domain 207-227; printed residue numbers include the signal peptide; Stood in the assays as a subunit of the purified needle complex or its substructures; source: endogenous, S. typhimurium strains SB905 (w.t.), SB1171 (ΔinvG) and SB906 complemented with plasmid-borne PrgH; purified within needle complexes
B2: PrgH (natural protein)
chain: METSKEKTITSPGPYIVRLLNSSLNGCEFPLLTGRTLFVVGQSDALTASGQLPDIPADSFFIPLDHGGVNFEIQVDTDATEIILHELKEGNSESRSVQLNTPIQVGELLILIRPESEPWVPEQPEKLETSAKKNEPRFKNGIVAALAGFFILGIGTVGTLWILNSPQRQAAELDSLLGQEKERFQVLPGRDKMLYVAAQNERDTLWARQVLARGDYDKNARVINENEENKRISIWLDTYYPQLAYYRIHFDEPRKPVFWLSRQRNTMSKKELEVLSQKLRALMPYADSVNITLMDDVTAAGQAEAGLKQQALPYSRRNHKGGVTFVIQGALDDVEILRARQFVDSYYRTWGGRYVQFAIELKDDWLKGRSFQYGAEGYIKMSPGHWYFPSPL
notes: PrgH, inner ring protein of the SPI-1 type III secretion needle complex, S. typhimurium; wild-type chromosomal allele; the N-terminal amino group of Met-1 (peptide METSK) was cross-linked; predicted transmembrane domain 142-162; Stood in the assays as a subunit of the whole purified needle complex or of the ΔinvG substructure, not as an isolated protein; source: endogenous, S. typhimurium strains …
B3: InvG (natural protein)
chain: SEKIPVTGSGFVAKDDSLRTFFDAMALQLKEPVIVSKMAARKKITGNFEFHDPNALLEKLSLQLGLIWYFDGQAIYIYDASEMRNAVVSLRNVSLNEFNNFLKRSGLYNKNYPLRGDNRKGTFYVSGPPVYVDMVVNAATMMDKQNDGIELGRQKIGVMRLNNTFVGDRTYNLRDQKMVIPGIATAIERLLQGEEQPLGNIVSSEPPAMPAFSANGEKGKAANYAGGMSLQEALKQNAAAGNIKIVAYPDTNSLLVKGTAEQVHFIEMLVKALDVAKRHVELSLWIVDLNKSDLERLGTSWSGSITIGDKLGVSLNQSSISTLDGSRFIAAVNALEEKKQATVVSRPVLLTQENVPAIFDNNRTFYTKLIGERNVALEHVTYGTMIRVLPRFSADGQIEMSLDIEDGNDKTPQSDTTTSVDALPEVGRTLISTIARVPHGKSLLVGGYTRDANTDTVQSIPFLGKLPLIGSLFRYSSKNKSNVVRVFMIEPKEIVDPLTPDASESVNNILKQSGAWSGDDKLQKWVRVYLDRGQEAIK
notes: InvG, secretin of the SPI-1 needle complex (outer rings and neck), S. typhimurium; processed InvG starts at Ser-25; printed residue numbers include the signal peptide; Stood in the assays as a subunit of the purified needle complex; source: endogenous, S. typhimurium strain SB905 (w.t.) and SB906 complemented with plasmid-borne PrgH; purified within needle complexes
B4: PrgH mutant lacking its last 4 amino acids (PrgH^Δ4) (domain or fragment)
chain: METSKEKTITSPGPYIVRLLNSSLNGCEFPLLTGRTLFVVGQSDALTASGQLPDIPADSFFIPLDHGGVNFEIQVDTDATEIILHELKEGNSESRSVQLNTPIQVGELLILIRPESEPWVPEQPEKLETSAKKNEPRFKNGIVAALAGFFILGIGTVGTLWILNSPQRQAAELDSLLGQEKERFQVLPGRDKMLYVAAQNERDTLWARQVLARGDYDKNARVINENEENKRISIWLDTYYPQLAYYRIHFDEPRKPVFWLSRQRNTMSKKELEVLSQKLRALMPYADSVNITLMDDVTAAGQAEAGLKQQALPYSRRNHKGGVTFVIQGALDDVEILRARQFVDSYYRTWGGRYVQFAIELKDDWLKGRSFQYGAEGYIKMSPGHWYF
notes: PrgH of S. typhimurium without its last 4 amino acids; also called C-terminal truncated PrgH; source: S. typhimurium SB906 (chromosomal ΔprgH) complemented with a pWSK29 plasmid, natural promoter; purified within needle complexes; copies: 24

What was measured:
[1] = molecular target: B2; assay: cross-linking; sucrose gradient purified whole needle complexes (about 1 mg/ml, w.t. strain SB905) on ice with 200 µM BS2G-d0/d4 for 30 or 60 min; single particles re-purified on sucrose gradients; tryptic digestion in solution, high-resolution mass spectrometry, xQuest score above 15; details: both partners purified
[2] = molecular target: B4; assay: negative-stain electron microscopy, single particle analysis; purified needle complexes incubated in 10 mM sodium phosphate pH 10.4 (legend: pH 10.5), 0.5 M NaCl, 0.1% LDAO, 15 min at 37°C, sucrose gradient, then negative stain (PTA or NanoVan); no symmetry imposed, rotational cross-correlation; details: both partners purified
[3] = molecular target: the molecule itself; assay: as above
[4] = molecular target: B3; assay: cross-linking; sucrose gradient purified whole needle complexes (about 1 mg/ml, w.t. strain SB905) on ice with 200 µM BS2G-d0/d4 for 30 or 60 min; single particles re-purified on sucrose gradients; tryptic digestion in solution, high-resolution mass spectrometry, xQuest score above 15; details: both partners purified
[5] = molecular target: the molecule itself; assay: cryo electron microscopy, single particle class averages; purified complexes from wild type and ΔinvG strains, vitrified; two-dimensional class averages and their density difference
[6] = molecular target: B3; assay: negative-stain electron microscopy; purified needle complexes of the PrgH^Δ4 strain, without high pH treatment; negative stain; details: both partners purified

B1
binding result [1]: binds | binding result [2]: binds | stoichiometry N [3]: 24

B2
binding result [4]: binds

B3
binding result [5]: binds

B4
binding result [6]: binds | stoichiometry N [3]: 24
